In PMC12144448:

Target: Drosophila CMP-sialic acid synthetase (CSAS), wild-type, 3xFLAG-tagged (Drosophila)
Test: SEC; clarified lysate of flies expressing CSAS-FLAG on a calibrated Superdex 75 10/30 HR column; 150 mM NaCl in 20 mM potassium phosphate pH 6.8; fractions analysed by FLAG Western blot

stoichiometry N: 2
Substance: Drosophila CMP-sialic acid synthetase (CSAS), wild-type, 3xFLAG-tagged (enzyme)
